# Data reported in US20150267232A1, “IN VIVO AND IN VITRO CARBENE INSERTION AND NITRENE TRANSFER REACTIONS CATALYZED BY HEME ENZYMES” (California Institute of Technology, priority 2012, published 2015).
# Test: N—H insertion, aniline with ethyl diazo acetate (EDA)
# Assay type: biochemical
# Conditions: for TTn / % Yield: protein 10 uM, EDA 8.5 mM, aniline 20 mM, Na2S2O4 10 mM, 12 h; for % Yield: product 4.3
# Text: We have found a variety of P450 variants to be general catalysts for carbenoid N—H insertion. We combined aniline with EDA in the presence of a reductant (Na2S2O4) under argon atmosphere and tested the mixture with seven P450BM3 variants previously identified as competent catalysts for cyclopropanation (Coelho, P. et al., Science. 2013, 339, 307-310). In choosing this set of P450s, we hypothesized that cyclopropanation activity could correlate with ability to generate the iron-carbenoid intermediate that is also necessary for N—H insertion. Whereas wild type BM3 (WT-BM3 (SEQ ID NO:1), Table 20, entry 1) provided only trace amounts of the desired product (4.3), a few variants gave 4.3 in good yields after 12 h at room temperature. In particular, variant H2-5-F10 which is derived from a thermostable P450BM3 lineage (Lewis, J. C. et al. ChemBioChem, 2010, 11, 2502-2505) and contains 15 mutation from WT-BM3 (SEQ ID NO:1), formed 4.3 in 47% yield and 473 turnovers (TTN) using 0.1% protein relative to EDA (entry 7). […] In contrast, when 1 mol % of the isolated hemin prosthetic group was used as catalyst, the single and double insertion products were produced in a 3.5 to 1 ratio (with a total product yield of 51%).
# A representative procedure for P450-catalyzed N—H insertion is as follows. To an unsealed crimp vial, 60 μL of a P450 solution (67 or 133 μM) was added and the vial was sealed. A 12.5 mM solution of sodium dithionite in phosphate buffer (0.1 M, pH=8.0) was degassed by bubbling with argon in a 6 mL crimp-sealed vial. The headspace of the 2 mL vials containing P450 solution were flushed with argon (no bubbling). The buffer/dithionite solution (360 μL) was then added to each reaction vial via syringe, and the gas lines were disconnected from the vials. 10 μL of an 800 mM stock of aniline was added via a glass syringe, followed by 10 μL of a 340 mM stock of EDA (both stocks in MeOH). The reaction vials were then placed in a tray on a plate shaker and left to shake at 40 rpm. The final concentrations of the reagents were typically: 20 mM aniline, 8.5 mM EDA, 10 mM Na2S2O4, and 10 or 20 μM P450. After 12 h at 25° C., the vials were removed from the shaker and uncapped and 1 mL of cyclohexane was added, followed by 20 μL of a 20 mM solution of phenethyl alcohol (internal standard). The mixture was transferred to a 1.5 mL Eppendorf tube and vortexed and centrifuged (13,000×g, 1 min.). The organic layer was dried over sodium sulfate if necessary then analyzed by GC, with comparison to an authentically prepared sample that has been verified by proton NMR ([…], Varian, CDCl3).
# Substitution is well-tolerated on the aniline partner on both the ortho and para positions. Reactions were analyzed by a Shimadzu GC with FID detector and J&W HP-5 column (30 m×0.32 mm, 0.25 μm film) and calibrated to an independently prepared sample of each product using phenethyl alcohol as internal standard. Reaction of aniline and EDA was also performed in milligram scale without any organic cosolvent to provide 4.3 in 65% isolated yield.
# Calibration curves were plotted as follows. Yields of N—H insertion products were determined using calibration curves made with independently synthesized standards that have been verified by proton NMR, with comparison to known literature data (Baumann, L. K. et al. Organometallics. 2007, 26, 3995-4002; Anding, B. J. et al. Organometallics. 2013, 32, 2599-2607). Two stock solutions of product were made at 160 mM and 40 mM. To four or five samples containing 380 μL of buffer, product was added from either of the stock solutions such at a final concentration of 0.5-8.0 mM in 400 μL was obtained. 20 μL of internal standard was added to each eppendorf tube, then 1 mL of cyclohexane was added and the tubes were vortexed and centrifuged (13,000 ×g, 30 seconds). The organic layer was then analyzed by GC. The ratio of the areas under the internal standard and product peaks were plotted against the concentration for each solution. […]
Molecule,ratio of single to double insertion products (1 mol % hemin),total product yield (1 mol % hemin) [%],TTn,% Yield (listed as BM3-WT) [%],% Yield (listed as WT-BM3),% Yield [%]
hemin,3.5 to 1,51,,,,
"P450BM3: wild-type cytochrome P450BM3 from Bacillus megaterium (SEQ ID NO: 1) (protein, listed as Bacillus megaterium, cytochrome P450NADPH-P-450 reductase precursor, cytochrome P450 (BM3), CYP102A1) TIKEMPQPKTFGELKNLPLLNTDKPVQALMKIADELGEIFKFEAPGRVTRYLSSQRLIKEACDESRFDKNLSQALKFVRDFAGDGLFTSWTHEKNWKKAHNILLPSFSQQAMKGYHAMMVDIAVQLVQKWERLNADEHIEVPEDMTRLTLDTIGLCGFNYRFNSFYRDQPHPFITSMVRALDEAMNKLQRANPDDPAYDENKRQFQEDIKVMNDLVDKIIADRKASGEQSDDLLTHMLNGKDPETGEPLDDENIRYQIITFLIAGHETTSGLLSFALYFLVKNPHVLQKAAEEAARVLVDPVPSYKQVKQLKYVGMVLNEALRLWPTAPAFSLYAKEDTVLGGEYPLEKGDELMVLIPQLHRDKTIWGDDVEEFRPERFENPSAIPQHAFKPFGNGQRACIGQQFALHEATLVLGMMLKHFDFEDHTNYELDIKETLTLKPEGFVVKAKSKKIPLGGIPSPSTEQSAKKVRKKAENAHNTPLLVLYGSNMGTAEGTARDLADIAMSKGFAPQVATLDSHAGNLPREGAVLIVTASYNGHPPDNAKQFVDWLDQASADEVKGVRYSVFGCGDKNWATTYQKVPAFIDETLAAKGAENIADRGEADASDDFEGTYEEWREHMWSDVAAYFNLDIENSEDNKSTLSLQFVDSAADMPLAKMHGAFSTNVVASKELQQPGSARSTRHLEIELPKEASYQEGDHLGVIPRNYEGIVNRVTARFGLDASQQIRLEAEEEKLAHLPLAKTVSVEELLQYVELQDPVTRTQLRAMAAKTVCPPHKVELEALLEKQAYKEQVLAKRLTMLELLEKYPACEMKFSEFIALLPSIRPRYYSISSSPRVDEKQASITVSVVSGEAWSGYGEYKGIASNYLAELQEGDTITCFISTPQSEFTLPKDPETPLIMVGPGTGVAPFRGFVQARKQLKEQGQSLGEAHLYFGCRSPHEDYLYQEELENAQSEGIITLHTAFSRMPNQPKTYVQHVMEQDGKKLIELLDQGAHFYICGDGSQMAPAVEATLMKSYADVHQVSEADARLWLQQLEEKGRYAKDVWAG",,,17,1.7,trace amounts,
"BM3-T268A: P450BM3 variant: T268A (protein, listed as Bacillus megaterium, cytochrome P450NADPH-P-450 reductase precursor, cytochrome P450 (BM3), CYP102A1) TIKEMPQPKTFGELKNLPLLNTDKPVQALMKIADELGEIFKFEAPGRVTRYLSSQRLIKEACDESRFDKNLSQALKFVRDFAGDGLFTSWTHEKNWKKAHNILLPSFSQQAMKGYHAMMVDIAVQLVQKWERLNADEHIEVPEDMTRLTLDTIGLCGFNYRFNSFYRDQPHPFITSMVRALDEAMNKLQRANPDDPAYDENKRQFQEDIKVMNDLVDKIIADRKASGEQSDDLLTHMLNGKDPETGEPLDDENIRYQIITFLIAGHEATSGLLSFALYFLVKNPHVLQKAAEEAARVLVDPVPSYKQVKQLKYVGMVLNEALRLWPTAPAFSLYAKEDTVLGGEYPLEKGDELMVLIPQLHRDKTIWGDDVEEFRPERFENPSAIPQHAFKPFGNGQRACIGQQFALHEATLVLGMMLKHFDFEDHTNYELDIKETLTLKPEGFVVKAKSKKIPLGGIPSPSTEQSAKKVRKKAENAHNTPLLVLYGSNMGTAEGTARDLADIAMSKGFAPQVATLDSHAGNLPREGAVLIVTASYNGHPPDNAKQFVDWLDQASADEVKGVRYSVFGCGDKNWATTYQKVPAFIDETLAAKGAENIADRGEADASDDFEGTYEEWREHMWSDVAAYFNLDIENSEDNKSTLSLQFVDSAADMPLAKMHGAFSTNVVASKELQQPGSARSTRHLEIELPKEASYQEGDHLGVIPRNYEGIVNRVTARFGLDASQQIRLEAEEEKLAHLPLAKTVSVEELLQYVELQDPVTRTQLRAMAAKTVCPPHKVELEALLEKQAYKEQVLAKRLTMLELLEKYPACEMKFSEFIALLPSIRPRYYSISSSPRVDEKQASITVSVVSGEAWSGYGEYKGIASNYLAELQEGDTITCFISTPQSEFTLPKDPETPLIMVGPGTGVAPFRGFVQARKQLKEQGQSLGEAHLYFGCRSPHEDYLYQEELENAQSEGIITLHTAFSRMPNQPKTYVQHVMEQDGKKLIELLDQGAHFYICGDGSQMAPAVEATLMKSYADVHQVSEADARLWLQQLEEKGRYAKDVWAG",,,160,,,16
"ABC-CIS: BM3-CIS + C400S (protein, listed as Bacillus megaterium, cytochrome P450NADPH-P-450 reductase precursor, cytochrome P450 (BM3), CYP102A1, BM3-CIS + C400S) TIKEMPQPKTFGELKNLPLLNTDKPVQALMKIADELGEIFKFEAPGRVTRYLSSQRLIKEACDESRFDKNLSQALKFARDFAGDGLVTSWTHEKNWKKAHNILLPSFSQQAMKGYHAMMVDIAVQLVQKWERLNADEHIEVSEDMTRLTLDTIGLCGFNYRFNSFYRDQPHPFIISMVRALDEVMNKLQRANPDDPAYDENKRQFQEDIKVMNDLVDKIIADRKARGEQSDDLLTQMLNGKDPETGEPLDDGNIRYQIITFLIAGHEATSGLLSFALYFLVKNPHVLQKVAEEAARVLVDPVPSYKQVKQLKYVGMVLNEALRLWPTAPAFSLYAKEDTVLGGEYPLEKGDEVMVLIPQLHRDKTVWGDDVEEFRPERFENPSAIPQHAFKPFGNGQRASIGQQFALHEATLVLGMMLKHFDFEDHTNYELDIKETLTLKPKGFVVKAKSKKIPLGGIPSPSTEQSAKKVRKKAENAHNTPLLVLYGSNMGTAEGTARDLADIAMSKGFAPQVATLDSHAGNLPREGAVLIVTASYNGHPPDNAKQFVDWLDQASADEVKGVRYSVFGCGDKNWATTYQKVPAFIDETLAAKGAENIADRGEADASDDFEGTYEEWREHMWSDVAAYFNLDIENSEDNKSTLSLQFVDSAADMPLAKMHGAFSTNVVASKELQQPGSARSTRHLEIELPKEASYQEGDHLGVIPRNYEGIVNRVTARFGLDASQQIRLEAEEEKLAHLPLAKTVSVEELLQYVELQDPVTRTQLRAMAAKTVCPPHKVELEALLEKQAYKEQVLAKRLTMLELLEKYPACEMKFSEFIALLPSIRPRYYSISSSPRVDEKQASITVSVVSGEAWSGYGEYKGIASNYLAELQEGDTITCFISTPQSEFTLPKDPETPLIMVGPGTGVAPFRGFVQARKQLKEQGQSLGEAHLYFGCRSPHEDYLYQEELENAQSEGIITLHTAFSRMPNQPKTYVQHVMEQDGKKLIELLDQGAHFYICGDGSQMAPAVEATLMKSYADVHQVSEADARLWLQQLEEKGRYAKDVWAG",,,136,,,14
